Results: patent US20110293610A1 (published 2011)

T1: TNF-beta (human, UniProt P01374 35-205)
T1 construct: also called TNFβ; Tumour Necrosis Factor-beta
T1 sequence (looked up): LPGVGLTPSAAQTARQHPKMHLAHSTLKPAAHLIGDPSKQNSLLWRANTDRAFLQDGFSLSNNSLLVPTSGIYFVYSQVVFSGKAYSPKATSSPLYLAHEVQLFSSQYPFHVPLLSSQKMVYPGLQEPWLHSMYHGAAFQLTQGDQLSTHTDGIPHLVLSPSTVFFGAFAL

T2: Fas ligand (human, UniProt P48023 134-281, limits assumed)
T2 sequence (looked up): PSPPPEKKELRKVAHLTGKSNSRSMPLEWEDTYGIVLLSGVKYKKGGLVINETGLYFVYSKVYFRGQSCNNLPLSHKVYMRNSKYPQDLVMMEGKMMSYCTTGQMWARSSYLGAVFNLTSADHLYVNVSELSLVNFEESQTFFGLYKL


Key:
[1] = target: T3, B Lymphocyte Stimulator, soluble form (human) (human, UniProt Q9Y275 134-285, biotinylated with NHS-biotin where used as biotinylated B Lymphocyte Stimulator); experiment: phage competition ELISA
T3 construct: Coated on plastic, captured on streptavidin plates, amine-coupled to a CM5 chip or free in solution, depending on the assay; also called BLyS; immobilized B Lymphocyte Stimulator

[2] = target: T4, membrane-bound B Lymphocyte Stimulator on U937 plasma membrane preparations (human, UniProt Q9Y275 1-285); experiment: phage ELISA
T4 construct: Natural protein in plasma membrane fractions of the human cell line U937 coated on ELISA plates; also called U937 plasma membranes; U937 membranes

TNF-beta = target: T1, TNF-beta; experiment: phage ELISA
TNF-alpha = target: T5, TNF-alpha (human, UniProt P01375 77-233); experiment: phage ELISA
T5 construct: also called TNFα; TNF-α
T5 sequence (P01375 77-233 limits assumed): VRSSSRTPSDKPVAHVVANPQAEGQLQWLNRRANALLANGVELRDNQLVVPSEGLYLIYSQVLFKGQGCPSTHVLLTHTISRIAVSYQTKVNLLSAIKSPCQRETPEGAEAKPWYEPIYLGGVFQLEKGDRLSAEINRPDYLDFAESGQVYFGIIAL

Fas ligand = target: T2, Fas ligand; experiment: phage ELISA
TRAIL = target: T6, TRAIL (human, UniProt P50591 114-281); experiment: phage ELISA
T6 construct: also called TNF-related apoptosis inducing ligand
T6 sequence (P50591 114-281 limits assumed): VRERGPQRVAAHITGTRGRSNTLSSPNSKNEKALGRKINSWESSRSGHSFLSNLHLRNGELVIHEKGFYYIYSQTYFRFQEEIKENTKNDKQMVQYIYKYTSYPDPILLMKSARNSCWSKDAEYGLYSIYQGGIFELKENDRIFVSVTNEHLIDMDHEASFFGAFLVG

| binding result [1] | binding result [2] | binding result (TNF-beta) | binding result (TNF-alpha) | binding result (Fas ligand) | binding result (TRAIL) | Binder |
| --- | --- | --- | --- | --- | --- | --- |
| binds | binds | no binding | no binding | no binding | no binding | I007B03 (scFv) scFv: GVQLQQSGAEVKKPGSSVKVSCKASGGTFNTSGITWVRQAPGQGLEWMGWMNPNTGDTAYAQEFQGRVIMTRDTSISTAYMELSSLRSEDTAVYYCARDGSYDILTGYYIDNYMDVWGQGTMVTVSSGGGGSGGGGSGGGGSQSVLTQPASVSGSPGQSITISCTGTSSDVGGYNYVSWYQQHPGKAPKLMIYEGSKRPSGVSNRFSGSKSGNTASLTISGLQAEDEADYYCSSYTTRSTRVFGGGTKLTVLG |
| binds | binds | no binding | no binding | no binding | no binding | I022D01 (scFv) scFv: EVNLRESGGGVDQPGRSLRLSCAASGFTFSSYGMHWVRQAPGKGLEWVAVISYDGSNKYYADSVKGRFTISRDNSKNTLYLQMNSLRAEDTAVYYCAKDGYYDILTGYSYYGMDVWGQGPMVAVSSGGGGSGGGGSGGGGSSELTQDPAVSVALGQTVRITCQGDSLRSYYTNWFQQKPGQAPLLVVYAKNKRPSGIPDRFSGSSSGNTASLTITGAQAEDEADYYCNSRDSSGNHVVFGGGTKLTVLG |
| binds | binds | no binding | no binding | no binding | no binding | I029F11 (scFv) scFv: QVQLVQSRAEVKRPGASVKVSCKASGYRFGSYGITWVRQAPGQGLEWMGWISTRYGDTKSAQKVEGRVTLTTDTSTSTAYMELRSLRSDDTAVYYCARDGSYDILTGYYIDNYMDVWGRGTLVTVSSGGGGSGGGGSGGGGSQSVLTQPPSASGTPGQRVTISCSGSSSNIGSNTVNWYQRLPGAAPQLLIYNNDQRPSGIPDRFSGSKSGTSGSLVISGLQSEDEADYYCASWDDSLNGRVFGGGTKLTVLG |

Continued, binder first:

| Binder | binding result [1] | binding result [2] | binding result (TNF-beta) | binding result (TNF-alpha) | binding result (Fas ligand) | binding result (TRAIL) |
| --- | --- | --- | --- | --- | --- | --- |
| I018C10 (scFv) scFv: GVQLVQSGPEVKKPGASVKVSCTASGYTFTSYGVSWVRQAPGQGLEWIGWISAHNGQTKYAEKFQGRVTMTRNTSISTAYMELSSLRSEDTVVYYCARDGSYDILTGYYIDNYMDVWGKGTMVTVSSGGGGSGGGGSGGGGSSELTQDPAVSVALGQTVRITCQGDSLRSYYTNWFQQKPGQAPLLVVYAKNKRPSGIPDRFSGSSSGNTASLTITGAQAEDEADYYCHSRDSSGNHVLFGGGTKLTVLG | binds | binds | no binding | no binding | no binding | no binding |
| I007H08 (scFv) scFv: QVQLQQSGPGLVKPSQILSLTCAISGDSVASNGAAWNWIRQSPSRGLEWLGRTYYRSKWYVDYAVSVKSRITINPDTSKNQFSLQLNSVTPEDTAVYYCARDRYDILTGYYYYGMDVWGQGTMVTVSSGGGGSGGGGSGGGGSQSALTQPASVSGSRGQSITISCTGTTGDVGGYDYVSWYQQHPGKAPKLLIYGNSNRPSGVPDRFSASKSGNTASLTISGLQAEDEADYFCNTYAPPGIIMFGGGTKLTVLG | binds | binds | no binding | no binding | no binding | no binding |
| I008A11 (scFv) scFv: QVQLQQSGPGLVKPSQILSLTCAISGDSVASNGAAWNWIRQSPSRGLEWLGRTYYRSKWYVDYAVSVKSRITINPDTSKNQFSLQLNSVTPEDTAVYYCARDRYDILTGYYYYGMDVWGQGTMVTVSSGGGGSGGGGSGGGGSQSALTQPASVSGSRGQSITISCTGTTGDVGGYDYVSWYQQHPGKAPKLLIYGNSNRPSGVPDRFSASKSGNTASLTISGLQAEDEADYFCSTYAPPGIIMFGGGTKLTVLG | binds | binds | no binding | no binding | no binding | no binding |
